We go through one protein from paper PMC9781407, “β-Xylosidase SRBX1 Activity from Sporisorium reilianum and Its Synergism with Xylanase SRXL1 in Xylose Release from Corn Hemicellulose” (Journal of Fungi, 2022).

Substrate in the data set: O=[N+]([O-])c1ccc(O[C@@H]2OC[C@@H](O)[C@H](O)[C@H]2O)cc1
Description: purified protein. As to conditions: 50 mM-type acetate buffer assay, pH 4, substrate 1-7 mM, temperature not stated for the kinetics. In kind it is biochemical, Sporisorium reilianum.

B1: β-xylosidase SRBX1 (Sporisorium reilianum SRZ2) (protein)
chain: ASLEHLNMLFHTRQADASNSTDSSSVNWNISSSDNSALATAPLAGTFYRGGPALADANSPFHPVTGNGGWEWAVVKARSVVGQLTLEEKVNLTAGITGGRCEGTLGRVDRFGIPELCFQDGPAGFRASDFVTVFPAGVTTAATWNRDLIYKRAAALGAEFVAKGVNVHLGPVTGGPLGRSPFQGRNWEGFGPDPYLHGEAAYYTVSGTQSAGVISTAKHFLAYEQETYRQLYAASDPFTLNPNNNTELTYSANLDDRTLHELYLWPFMNAVRAGTGALVCVYNRVNSTQGCESSKLLNEILKDELDYQGFVVTDWSAAFNTSNTYNGGSDVVMPGGMTGGYKNLVGGSDLVRALNAGEVKIERINDGITRLLTQWYLRGQDKGYPTVSYKDGYQNTIFNGTVVNEHRDVQGDHRKIVKEIGEEAVTLIYNKRSNKAGPQGNTDFGLGLPLAKKARVAVFGSDAGPNPYGANACQDWIGLGSQLCPANATSNGTQAVGWGSGAGFFPYLIDPLAGISEVAKENRGAVLHNLNDVGDDKNQMYVKQQAGLADASLVFVQARSGEDSDRHSLRLDADGDELIKLVASQSNNTIVVMHTVGPVLMGDWFDHPNITALVLPHLPGQESGSSLARVLYGDVNPSGKMPYSMLSDEDAKRYPKIVGSPASDPQVDFYDGLYIDYRAWDKMGLKPLIPFGHGISYTNYSYSNLHIQKAGDNCYAPSAFSGSFKSDKQPGGPGSLFQYLVEVSADVQNVGAMAGDEVAQLYVGYPEAANAPIKQLRGFDKVQGLEPGAASKQATFKLAKRDFSVWDVVKQKFEVVDGEYKIWVGKSSRMSDLTLKGSVTMQNGMVVGMSS
notes: native extracellular enzyme purified from S. reilianum culture supernatant by gel filtration; theoretical precursor 874 aa, signal peptide 1-23; monomer; 12 theoretical glycosylation sites; no tag
With B1, the Km came to 2500 µM.

As a reminder, the Km is the concentration of substrate that gives half-maximal velocity.
